Target: the molecule itself
Assay: atomic force microscopy

B1: UGT1A1 (sample observed by atomic force microscopy) (enzyme, human, UniProt P22309 26-533, looked up)
chain: HAGKILLIPVDGSHWLSMLGAIQQLQQRGHEIVVLAPDASLYIRDGAFYTLKTYPVPFQREDVKESFVSLGHNVFENDSFLQRVIKTYKKIKKDSAMLLSGCSHLLHNKELMASLAESSFDVMLTDPFLPCSPIVAQYLSLPTVFFLHALPCSLEFEATQCPNPFSYVPRPLSSHSDHMTFLQRVKNMLIAFSQNFLCDVVYSPYATLASEFLQREVTVQDLLSSASVWLFRSDFVKDYPRPIMPNMVFVGGINCLHQNPLSQEFEAYINASGEHGIVVFSLGSMVSEIPEKKAMAIADALGKIPQTVLWRYTGTRPSNLANNTILVKWLPQNDLLGHPMTRAFITHAGSHGVYESICNGVPMVMMPLFGDQMDNAKRMETKGAGVTLNVLEMTSEDLENALKAVINDKSYKENIMRLSSLHKDRPVEPLDLAVFWVEFVMRHKGAPHLRPAAHDLTWYQYHSLDVIGFLLAVVLTVAFITFKCCAYGYRKCLGKKGRVKKAHKSKTH
stoichiometry N: 2
